Measurements from paper PMC9482650, “Quantitative fragmentomics allow affinity mapping of interactomes” (Nature Communications, 2022).

Columns and labels:
Test in all cases: holdup assay
Set-up in all cases: key: below the threshold = too weak to quantify, mostly under pKd 3.1 to 4
[1] = target: DLG4_2, P78352
[2] = target: DLG4_3, P78352
[3] = target: DLG5_1, Q8TDM6
[4] = target: FRMPD2_1, Q68DX3
[5] = target: FRMPD2_2, Q68DX3
[6] = target: GRID2IP_1, A4D2P6
[7] = target: GRID2IP_2, A4D2P6
[8] = target: T1, GRIP1_5, Q9Y3R0
T1 sequence (Q9Y3R0 568-668, limits assumed, looked up): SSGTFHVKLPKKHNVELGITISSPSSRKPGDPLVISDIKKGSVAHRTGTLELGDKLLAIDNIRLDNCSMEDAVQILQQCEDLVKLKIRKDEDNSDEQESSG

[9] = target: IL16_1, Q14005
[10] = target: LDB3, O75112
[11] = target: T2, LNX2_2, Q8N448
T2 sequence (Q8N448 334-432, limits assumed, looked up): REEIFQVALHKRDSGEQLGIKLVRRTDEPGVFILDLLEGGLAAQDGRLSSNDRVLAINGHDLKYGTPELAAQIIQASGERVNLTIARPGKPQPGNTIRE

[12] = target: MAGI2_2, Q86UL8
[13] = target: MAGI2_3, Q86UL8
[14] = target: MAGI2_5, Q86UL8
[15] = target: MAGI3_2, Q5TCQ9
[16] = target: T3, MPDZ_12, O75970
T3 sequence (O75970 1857-1958, limits assumed, looked up): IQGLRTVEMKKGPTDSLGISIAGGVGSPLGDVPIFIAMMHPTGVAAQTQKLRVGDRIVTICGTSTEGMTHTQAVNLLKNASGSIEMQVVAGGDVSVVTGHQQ

[17] = target: T4, NHERF3_4, Q5T2W1
T4 sequence (Q5T2W1 373-468, limits assumed, looked up): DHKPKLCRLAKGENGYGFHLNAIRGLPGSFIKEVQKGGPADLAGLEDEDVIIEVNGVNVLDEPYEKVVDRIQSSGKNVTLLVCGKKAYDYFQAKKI

[18] = target: NOS1, P29475
[19] = target: PARD3_3, Q8TEW0
[20] = target: T5, PDZRN3_1, Q9UPQ7
T5 sequence (Q9UPQ7 244-349, limits assumed, looked up): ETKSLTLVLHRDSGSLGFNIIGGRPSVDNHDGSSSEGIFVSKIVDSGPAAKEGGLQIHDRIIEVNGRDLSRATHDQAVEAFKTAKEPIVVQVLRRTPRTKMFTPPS

[21] = target: SCRIB_2, Q14160
[22] = target: T6, SNTG1, Q9NSN8
T6 sequence (Q9NSN8 52-150, limits assumed, looked up): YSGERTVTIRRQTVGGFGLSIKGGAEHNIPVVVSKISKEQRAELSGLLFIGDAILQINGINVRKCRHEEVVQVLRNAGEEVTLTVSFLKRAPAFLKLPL

[23] = target: T7, SNTG2, Q9NY99
T7 sequence (Q9NY99 68-166, limits assumed, looked up): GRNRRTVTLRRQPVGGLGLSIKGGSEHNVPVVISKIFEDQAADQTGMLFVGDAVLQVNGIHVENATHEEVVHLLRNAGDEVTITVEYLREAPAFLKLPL

[24] = target: SNX27, Q96L92
[25] = target: T8, SYNJ2BP, P57105
T8 sequence (P57105 8-110, limits assumed, looked up): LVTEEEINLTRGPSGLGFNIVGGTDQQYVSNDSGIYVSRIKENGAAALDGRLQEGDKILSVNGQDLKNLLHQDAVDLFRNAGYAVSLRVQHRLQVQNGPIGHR

[26] = target: T9, TIAM2, Q8IVF5
T9 sequence (Q8IVF5 885-986, limits assumed, looked up): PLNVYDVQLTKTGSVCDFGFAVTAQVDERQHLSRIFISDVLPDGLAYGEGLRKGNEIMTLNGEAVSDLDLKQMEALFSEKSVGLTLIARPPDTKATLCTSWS

[27] = target: TJP1_2, Q07157
[28] = target: T10, TX1BP3, O14907
T10 sequence (O14907 10-122, limits assumed, looked up): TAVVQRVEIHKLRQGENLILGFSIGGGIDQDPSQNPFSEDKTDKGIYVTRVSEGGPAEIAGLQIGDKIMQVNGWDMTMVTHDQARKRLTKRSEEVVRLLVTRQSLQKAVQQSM

[29] = plain residues with an end cap or a label only (N-terminal biotin on a linker: ahx)
[30] = plain residues with an end cap or a label only (N-terminal biotin on a linker: ttds)
[31] = plain residues with an end cap or a label only (N-terminal biotin on a linker: gsgsgs; C-terminal amide)

Sequence of DLG4_2, P78352 (P78352 155-259): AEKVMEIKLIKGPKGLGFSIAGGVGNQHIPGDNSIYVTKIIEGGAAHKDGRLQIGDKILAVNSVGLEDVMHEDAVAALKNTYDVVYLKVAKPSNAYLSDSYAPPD
Sequence of NOS1, P29475 (P29475 9-101): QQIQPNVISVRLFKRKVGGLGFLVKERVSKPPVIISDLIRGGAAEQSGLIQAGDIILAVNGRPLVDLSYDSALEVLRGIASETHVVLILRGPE
Sequence of PARD3_3, Q8TEW0 (Q8TEW0 582-685): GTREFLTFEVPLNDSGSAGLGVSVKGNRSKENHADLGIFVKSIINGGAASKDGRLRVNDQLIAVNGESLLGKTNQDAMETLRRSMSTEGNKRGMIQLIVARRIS
Sequence of MAGI3_2, Q5TCQ9 (Q5TCQ9 398-503): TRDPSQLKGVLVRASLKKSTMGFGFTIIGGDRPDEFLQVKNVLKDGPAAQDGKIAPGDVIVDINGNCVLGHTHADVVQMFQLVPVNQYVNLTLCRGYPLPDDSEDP
Sequence of MAGI2_3, Q86UL8 (Q86UL8 600-682): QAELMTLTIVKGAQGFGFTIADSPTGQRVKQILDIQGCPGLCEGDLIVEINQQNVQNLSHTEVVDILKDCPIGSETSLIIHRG
Sequence of MAGI2_2, Q86UL8 (Q86UL8 410-522): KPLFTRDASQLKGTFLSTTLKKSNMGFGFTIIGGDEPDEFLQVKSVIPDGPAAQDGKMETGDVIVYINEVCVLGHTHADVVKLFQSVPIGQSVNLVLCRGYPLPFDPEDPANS
Sequence of FRMPD2_1, Q68DX3 (Q68DX3 770-861): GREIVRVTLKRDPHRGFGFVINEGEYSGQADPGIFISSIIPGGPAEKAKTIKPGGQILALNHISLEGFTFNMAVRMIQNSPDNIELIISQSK
Sequence of DLG5_1, Q8TDM6 (Q8TDM6 617-713): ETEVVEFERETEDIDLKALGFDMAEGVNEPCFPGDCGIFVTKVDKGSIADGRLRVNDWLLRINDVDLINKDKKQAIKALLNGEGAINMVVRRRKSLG
Sequence of LDB3, O75112 (O75112 1-94): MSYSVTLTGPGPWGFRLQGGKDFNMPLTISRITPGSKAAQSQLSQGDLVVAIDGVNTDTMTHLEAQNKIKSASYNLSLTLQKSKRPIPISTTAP
Sequence of GRID2IP_1, A4D2P6 (A4D2P6 1-87): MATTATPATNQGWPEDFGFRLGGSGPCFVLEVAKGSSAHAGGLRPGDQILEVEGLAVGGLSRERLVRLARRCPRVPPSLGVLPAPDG
Sequence of IL16_1, Q14005 (Q14005 210-306): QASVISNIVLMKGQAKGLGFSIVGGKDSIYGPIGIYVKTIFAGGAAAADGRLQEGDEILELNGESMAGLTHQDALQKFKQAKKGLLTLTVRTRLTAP
Sequence of DLG4_3, P78352 (P78352 306-403): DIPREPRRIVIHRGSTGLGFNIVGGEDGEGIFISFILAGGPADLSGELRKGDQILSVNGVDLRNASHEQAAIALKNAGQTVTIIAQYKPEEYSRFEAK
Sequence of MAGI2_5, Q86UL8 (Q86UL8 915-1017): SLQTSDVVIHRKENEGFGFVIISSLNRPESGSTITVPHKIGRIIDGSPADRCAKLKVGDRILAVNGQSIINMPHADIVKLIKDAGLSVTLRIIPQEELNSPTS
Sequence of GRID2IP_2, A4D2P6 (A4D2P6 272-370): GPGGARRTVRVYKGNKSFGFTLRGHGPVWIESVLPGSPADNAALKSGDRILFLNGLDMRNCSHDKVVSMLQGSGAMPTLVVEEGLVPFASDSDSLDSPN
Sequence of SCRIB_2, Q14160 (Q14160 857-960): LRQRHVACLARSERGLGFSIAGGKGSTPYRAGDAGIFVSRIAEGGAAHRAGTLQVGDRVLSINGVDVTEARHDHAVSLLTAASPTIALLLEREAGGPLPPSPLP
Sequence of FRMPD2_2, Q68DX3 (Q68DX3 944-1038): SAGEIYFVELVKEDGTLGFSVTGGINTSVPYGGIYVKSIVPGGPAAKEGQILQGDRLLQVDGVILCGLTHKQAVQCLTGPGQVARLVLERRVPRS
Sequence of TJP1_2, Q07157 (Q07157 181-274): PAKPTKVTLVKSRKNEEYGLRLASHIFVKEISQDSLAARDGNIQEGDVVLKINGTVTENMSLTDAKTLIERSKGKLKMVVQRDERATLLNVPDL

RRRKRKRTYL [HPV49-L2, P36762]
pKd [1, 29]: below the threshold | pKd [2, 29]: 4.26 | pKd [3, 29]: below the threshold | pKd [4, 29]: 3.78 | pKd [5, 29]: below the threshold | pKd [6, 29]: below the threshold | pKd [7, 29]: 5.11 | pKd [8, 29]: below the threshold | pKd [9, 29]: below the threshold | pKd [10, 29]: below the threshold | pKd [11, 29]: below the threshold | pKd [12, 29]: 5.33 | pKd [13, 29]: below the threshold | pKd [14, 29]: below the threshold | pKd [15, 29]: 5.4 | pKd [16, 29]: below the threshold | pKd [17, 29]: 4 | pKd [18, 29]: 3.71 | pKd [19, 29]: below the threshold | pKd [20, 29]: 3.51 | pKd [21, 29]: below the threshold | pKd [22, 29]: below the threshold | pKd [23, 29]: 3.57 | pKd [24, 29]: below the threshold | pKd [25, 29]: below the threshold | pKd [26, 29]: below the threshold | pKd [27, 29]: 3.49 | pKd [28, 29]: 3.48

RPLPRKVSQL [DOCK4, Q8N1I0]
pKd [1, 30]: below the threshold | pKd [2, 30]: 3.69 | pKd [3, 30]: below the threshold | pKd [4, 30]: below the threshold | pKd [5, 30]: below the threshold | pKd [6, 30]: below the threshold | pKd [7, 30]: 4.19 | pKd [8, 30]: below the threshold | pKd [9, 30]: below the threshold | pKd [10, 30]: below the threshold | pKd [11, 30]: below the threshold | pKd [12, 30]: 4.6 | pKd [13, 30]: below the threshold | pKd [14, 30]: below the threshold | pKd [15, 30]: 4.69 | pKd [16, 30]: below the threshold | pKd [17, 30]: below the threshold | pKd [18, 30]: below the threshold | pKd [19, 30]: below the threshold | pKd [20, 30]: 3.64 | pKd [21, 30]: below the threshold | pKd [22, 30]: below the threshold | pKd [23, 30]: 3.77 | pKd [24, 30]: below the threshold | pKd [25, 30]: 3.59 | pKd [26, 30]: below the threshold | pKd [27, 30]: below the threshold | pKd [28, 30]: 4.41

RAVEEEESRF [PSCDBP, O60759]
pKd [1, 29]: below the threshold | pKd [2, 29]: below the threshold | pKd [3, 29]: below the threshold | pKd [4, 29]: below the threshold | pKd [5, 29]: below the threshold | pKd [6, 29]: below the threshold | pKd [7, 29]: below the threshold | pKd [8, 29]: below the threshold | pKd [9, 29]: below the threshold | pKd [10, 29]: below the threshold | pKd [11, 29]: below the threshold | pKd [12, 29]: below the threshold | pKd [13, 29]: below the threshold | pKd [14, 29]: 3.7 | pKd [15, 29]: below the threshold | pKd [16, 29]: below the threshold | pKd [17, 29]: below the threshold | pKd [18, 29]: 3.62 | pKd [19, 29]: 4.09 | pKd [20, 29]: below the threshold | pKd [21, 29]: below the threshold | pKd [22, 29]: below the threshold | pKd [23, 29]: below the threshold | pKd [24, 29]: 5.64 | pKd [25, 29]: below the threshold | pKd [26, 29]: below the threshold | pKd [27, 29]: below the threshold | pKd [28, 29]: below the threshold

YGIVQETTFDLGGDIH [MLLT4_int, P55196]
pKd [1, 31]: below the threshold | pKd [2, 31]: below the threshold | pKd [3, 31]: below the threshold | pKd [4, 31]: below the threshold | pKd [5, 31]: below the threshold | pKd [6, 31]: below the threshold | pKd [7, 31]: below the threshold | pKd [8, 31]: below the threshold | pKd [9, 31]: below the threshold | pKd [10, 31]: below the threshold | pKd [11, 31]: below the threshold | pKd [12, 31]: below the threshold | pKd [13, 31]: below the threshold | pKd [14, 31]: below the threshold | pKd [15, 31]: below the threshold | pKd [16, 31]: below the threshold | pKd [17, 31]: below the threshold | pKd [18, 31]: below the threshold | pKd [19, 31]: below the threshold | pKd [20, 31]: below the threshold | pKd [21, 31]: 3.65 | pKd [22, 31]: below the threshold | pKd [23, 31]: below the threshold | pKd [24, 31]: 4.59 | pKd [25, 31]: below the threshold | pKd [26, 31]: 3.98 | pKd [27, 31]: below the threshold | pKd [28, 31]: 3.83

FHPLGADSQV [SLC2A1, P11166]
pKd [1, 30]: 3.95 | pKd [2, 30]: below the threshold | pKd [3, 30]: below the threshold | pKd [4, 30]: below the threshold | pKd [5, 30]: below the threshold | pKd [6, 30]: below the threshold | pKd [7, 30]: below the threshold | pKd [8, 30]: below the threshold | pKd [9, 30]: 3.51 | pKd [10, 30]: below the threshold | pKd [11, 30]: below the threshold | pKd [12, 30]: below the threshold | pKd [13, 30]: below the threshold | pKd [14, 30]: below the threshold | pKd [15, 30]: below the threshold | pKd [16, 30]: below the threshold | pKd [17, 30]: below the threshold | pKd [18, 30]: 3.49 | pKd [19, 30]: below the threshold | pKd [20, 30]: 3.53 | pKd [21, 30]: below the threshold | pKd [22, 30]: 3.88 | pKd [23, 30]: below the threshold | pKd [24, 30]: 4.05 | pKd [25, 30]: 4.46 | pKd [26, 30]: below the threshold | pKd [27, 30]: below the threshold | pKd [28, 30]: 3.77
